Reference: patent US7083511B1, “Methods” (The University of Dundee, priority 1998, dated 2006)

Key:
SGK [1] = assay: Activation of GST-SGK in transfected 293 cells (Example 1); type: cell-based, human; settings: PMA 400 ng/ml 30 min, EGF 100 ng/ml 30 min
PKBα = molecular target: T1, PKBα (Homo sapiens, UniProt P31749); assay: Activity of PKBα towards synthetic peptides related to Crosstide; type: biochemical; settings: GST-PKBα from 293 cells activated by PDK1; each peptide 30 μM
T1 construct: pEBG-PKBa expressing full length PKBα; made in house; host or cells: 293 cells (pEBG-PKBα)

SGK3 = molecular target: T2, SGK3 (Homo sapiens, UniProt Q96BR1, S486D); assay: Activity of SGK3 toward synthetic peptides related to Crosstide; type: biochemical; settings: each peptide 30 μM, average of two experiments
T2 construct: SGK3 lacking the N-terminal 52 residues (ΔN-SGK3[53–429]); made in house; host or cells: 293 cells (pEBG-2T-2 vector)
T2 sequence (Q96BR1 120-496 S486D): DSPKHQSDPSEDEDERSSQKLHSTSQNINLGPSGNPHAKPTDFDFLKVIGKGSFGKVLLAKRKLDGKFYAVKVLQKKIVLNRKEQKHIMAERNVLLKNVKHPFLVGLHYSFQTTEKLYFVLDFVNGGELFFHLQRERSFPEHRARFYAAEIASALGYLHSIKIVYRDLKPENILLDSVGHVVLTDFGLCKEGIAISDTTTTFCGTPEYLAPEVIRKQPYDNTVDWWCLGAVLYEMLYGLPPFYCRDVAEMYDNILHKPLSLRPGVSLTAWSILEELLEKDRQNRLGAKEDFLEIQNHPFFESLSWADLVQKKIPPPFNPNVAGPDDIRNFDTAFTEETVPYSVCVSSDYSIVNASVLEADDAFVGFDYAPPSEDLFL

SGK [2] = molecular target: T3, SGK (Homo sapiens, UniProt O00141, S422D); assay: Activity of SGK towards synthetic peptides related to Crosstide; type: biochemical; settings: GST-ΔN-SGK from 293 cells activated by PDK1; each peptide 30 μM
T3 construct: made in house; host or cells: human embryonic kidney 293 cells (pEBG-2T vector)
T3 sequence (O00141 61-431 S422D): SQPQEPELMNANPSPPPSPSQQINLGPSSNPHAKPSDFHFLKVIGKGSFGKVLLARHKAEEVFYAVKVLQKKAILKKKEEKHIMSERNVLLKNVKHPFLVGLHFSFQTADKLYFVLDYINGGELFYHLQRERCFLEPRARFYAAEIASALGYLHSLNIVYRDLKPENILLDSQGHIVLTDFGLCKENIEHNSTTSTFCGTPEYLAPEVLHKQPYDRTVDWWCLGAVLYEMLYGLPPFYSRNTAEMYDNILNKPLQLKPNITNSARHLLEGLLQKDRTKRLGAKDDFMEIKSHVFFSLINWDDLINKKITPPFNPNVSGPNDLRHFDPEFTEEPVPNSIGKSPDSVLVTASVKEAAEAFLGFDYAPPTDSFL
Description: Phosphorylation and assay of SGK. Phosphorylation was carried out at 30° C. in 50 μl incubations containing 50 mM Tris/HCl pH 7.5, 0.1 mM EGTA, 0.1% (v/v) 2-mercaptoethanol, 2.5 μM PKI, 1 μM microcystin-LR, 10 mM magnesium chloride and 100 μM ATP. Where indicated lipid vesicles containing phosphatidylcholine (100 μM), phosphatidyl serine (100 μM) and PtdIns(3,4,5)P3 (1 μM) were also included. SGK activity was assayed exactly as described for PKB [6] using the peptide […] (SEQ. ID. NO:30) (“Crosstide”) at 30 μM as substrate. One unit of activity (U) was that amount which catalysed the phosphorylation of […] of Crosstide in one min.

SGK2 = molecular target: T4, SGK2 (Homo sapiens, UniProt Q9HBY8, S356D); assay: Activity of SGK2 toward synthetic peptides related to Crosstide; type: biochemical; settings: each peptide 30 μM, average of two experiments
T4 construct: pEBG-SGK2α expressing full length of SGK2α; made in house; host or cells: 293 cells (pEBG-2T-2 vector)
T4 sequence (Q9HBY8 1-367 S356D): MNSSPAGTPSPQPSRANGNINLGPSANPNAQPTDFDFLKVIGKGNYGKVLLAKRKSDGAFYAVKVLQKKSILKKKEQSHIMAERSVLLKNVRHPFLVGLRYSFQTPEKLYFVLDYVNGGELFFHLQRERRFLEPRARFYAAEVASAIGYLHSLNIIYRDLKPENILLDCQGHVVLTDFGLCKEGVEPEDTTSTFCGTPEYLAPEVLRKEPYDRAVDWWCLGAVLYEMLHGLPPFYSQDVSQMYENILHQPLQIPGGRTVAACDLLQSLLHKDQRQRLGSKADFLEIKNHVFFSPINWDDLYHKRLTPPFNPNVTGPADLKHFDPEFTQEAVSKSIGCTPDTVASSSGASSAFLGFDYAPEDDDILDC
Description: Each GST-SGK isoform (0.4 μg) was incubated for 20 min at 30° C. with protein phosphatase 2A (PP2A, 30 mU/ml) in a 10 μl incubation containing 20 mM Tris/HCl, pH 7.5, 0.1% (v/v) 2-mercaptoethanol, 0.1 mM EGTA and 1 mg/ml bovine serum albumin. After addition of microcystin-LR to 1 μM to inactivate PP2A, SGK (0.4 μg) was phosphorylated for 30 min at 30° C. in a mixture (20 μl) containing 50 mM Tris/HCl, pH 7.5, 10 mM MgCl2, 0.1% (v/v) 2-mercaptoethanol, 0.1 mM EGTA, GST-PDK1 (0.03–300 ng) diluted in Buffer C and 100 μM unlabelled ATP. […] ID. NO:30) and 4.2 μM of residues 5–24 of the specific protein inhibitor of adenosine 3′5′ cyclic monophosphate-dependent protein kinase. After 10 min at 30° C., the reactions were terminated by spotting aliquots on to P81 phosphocellulose paper, followed by immediate immersion in 75 mM phosphoric acid. The papers were washed, dried and analysed. One unit (U) of SGK was that amount which phosphorylated 1 nmole of Crosstide in one min.

SGK1 = molecular target: T5, SGK1 (Homo sapiens, UniProt O00141, S422D); assay: Activity of SGK1 toward synthetic peptides related to Crosstide; type: biochemical; settings: each peptide 30 μM, average of two experiments
T5 construct: made in house; host or cells: human embryonic kidney 293 cells (pEBG-2T vector)
T5 sequence (O00141 61-431 S422D): T3 sequence (O00141 61-431 S422D)

[3] = GST-ΔN-SGK3[S419D] from 293 cells
[4] = GST-SGK2α[S356D] from 293 cells
[5] = GST-ΔN-SGK1[S422D] from 293 cells

T1 sequence (P31749 whole entry, species assumed): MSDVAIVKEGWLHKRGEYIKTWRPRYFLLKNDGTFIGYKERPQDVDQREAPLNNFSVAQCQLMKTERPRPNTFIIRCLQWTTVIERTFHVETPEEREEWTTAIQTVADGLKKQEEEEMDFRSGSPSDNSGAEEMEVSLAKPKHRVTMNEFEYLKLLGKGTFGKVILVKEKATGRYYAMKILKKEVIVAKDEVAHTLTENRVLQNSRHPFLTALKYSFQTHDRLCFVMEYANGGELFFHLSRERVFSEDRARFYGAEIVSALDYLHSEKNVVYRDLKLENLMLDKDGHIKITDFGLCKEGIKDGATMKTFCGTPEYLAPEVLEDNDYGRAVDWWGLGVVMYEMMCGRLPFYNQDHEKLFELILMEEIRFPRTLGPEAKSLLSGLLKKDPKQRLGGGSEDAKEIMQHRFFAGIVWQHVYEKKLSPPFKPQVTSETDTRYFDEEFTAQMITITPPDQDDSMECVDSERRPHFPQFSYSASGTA

Compound	Activation of SGK by the stimulus (in words) (SGK [1])	PKBα activity relative to peptide 1 (Crosstide) (PKBα) [%]	SGK3 activity % relative to peptide 1 (Crosstide) (SGK3; [3]) [%]	SGK activity relative to peptide 1 (Crosstide) (SGK [2]) [%]	SGK2 activity % relative to peptide 1 (Crosstide) (SGK2; [4]) [%]	SGK1 activity % relative to peptide 1 (Crosstide) (SGK1; [5]) [%]	SGK3 activity % relative to peptide 1 (Crosstide) (SGK3; […]) [%]	SGK2 activity % relative to peptide 1 (Crosstide) (SGK2; […]) [%]	SGK1 activity % relative to peptide 1 (Crosstide) (SGK1; […]) [%]
CCCCCCCCCCCCCC(=O)O[C@@H]1[C@@H](C)[C@@]2(O)[C@@H](C=C(CO)C[C@]3(O)C(=O)C(C)=C[C@@H]23)[C@@H]2C(C)(C)[C@]12OC(C)=O [Phorbol myristate acetate, reference compound]	did not induce any activation								
EGF: activator of the classical MAP kinase cascade in 293 cells	did not induce any activation								
GRPRTSSFAEG [Peptide 1, ID; NO: 30, reference compound]		100	100	100	100	100			
KPRTSSF [Peptide 8, ID; NO: 37]		6	<1	2	<1	<1			
PRTSSF [Peptide 4, ID; NO: 33]		<1	<1	<1	<1	<1			
RPKTSSF [Peptide 9, ID; NO: 38]		26	48	49	8	11			
RPRAATF [Peptide 7]		55		73			56	61	44
RPRTSAF [Peptide 3, ID; NO: 32]		<1	<1	<1	<1	<1			
RPRTSS [Peptide 5, ID; NO: 31]		<1	18	10	8	5.1			
RPRTSSA [Peptide 13, ID; NO: 42]		26	123	107	82	49			
RPRTSSE [Peptide 15, ID; NO: 44]		21	67	84	34	28			
RPRTSSF [Peptide 2, ID; NO: 39]		160	137	154	182	135			
RPRTSSK [Peptide 14, ID; NO: 43]		48	200	146	128	84			
RPRTSSL [Peptide 11, ID; NO: 40]		69	113	135	185	108			
RPRTSSV [Peptide 12, ID; NO: 41]		67	139	131	124	90			
RPRTSTF [Peptide 6, ID; NO: 35]		208	156	156	192	129			
